{"source": "patent US20090118185A1", "about": "(UNIVERSITY OF ROCHESTER, published 2009)", "molecules": {"B1": {"name": "WT factor VIIIa (B-domainless recombinant human factor VIII activated by thrombin) (other)", "chain 1": "ATRRYYLGAVELSWDYMQSDLGELPVDARFPPRVPKSFPFNTSVVYKKTLFVEFTVHLFNIAKPRPPWMGLLGPTIQAEVYDTVVITLKNMASHPVSLHAVGVSYWKASEGAEYDDQTSQREKEDDKVFPGGSHTYVWQVLKENGPMASDPLCLTYSYLSHVDLVKDLNSGLIGALLVCREGSLAKEKTQTLHKFILLFAVFDEGKSWHSETKNSLMQDRDAASARAWPKMHTVNGYVNRSLPGLIGCHRKSVYWHVIGMGTTPEVHSIFLEGHTFLVRNHRQASLEISPITFLTAQTLLMDLGQFLLFCHISSHQHDGMEAYVKVDSCPEEPQLRMKNNEEAEDYDDDLTDSEMDVVRFDDDNSPSFIQIR", "chain 2": "SVAKKHPKTWVHYIAAEEEDWDYAPLVLAPDDRSYKSQYLNNGPQRIGRKYKKVRFMAYTDETFKTREAIQHESGILGPLLYGEVGDTLLIIFKNQASRPYNIYPHGITDVRPLYSRRLPKGVKHLKDFPILPGEIFKYKWTVTVEDGPTKSDPRCLTRYYSSFVNMERDLASGLIGPLLICYKESVDQRGNQIMSDKRNVILFSVFDENRSWYLTENIQRFLPNPAGVQLEDPEFQASNIMHSINGYVFDSLQLSVCLHEVAYWYILSIGAQTDFLSVFFSGYTFKHKMVYEDTLTLFPFSGETVFMSMENPGLWILGCHNSDFRNRGMTALLKVSSCDKNTGDYYEDSYEDISAYLLSKNNAIEPR", "chain 3": "SFQKKTRHYFIAAVERLWDYGMSSSPHVLRNRAQSGSVPQFKKVVFQEFTDGSFTQPLYRGELNEHLGLLGPYIRAEVEDNIMVTFRNQASRPYSFYSSLISYEEDQRQGAEPRKNFVKPNETKTYFWKVQHHMAPTKDEFDCKAWAYFSDVDLEKDVHSGLIGPLLVCHTNTLNPAHGRQVTVQEFALFFTIFDETKSWYFTENMERNCRAPCNIQMEDPTFKENYRFHAINGYIMDTLPGLVMAQDQRIRWYLLSMGSNENIHSIHFSGHVFTVRKKEEYKMALYNLYPGVFETVEMLPSKAGIWRVECLIGEHLHAGMSTLFLVYSNKCQTPLGMASGHIRDFQITASGQYGQWAPKLARLHYSGSINAWSTKEPFSWIKVDLLAPMIIHGIKTQGARQKFSSLYISQFIIMYSLDGKKWQTYRGNSTGTLMVFFGNVDSSGIKHNIFNPPIIARYIRLHPTHYSIRSTLRMELMGCDLNSCSMPLGMESKAISDAQITASSYFTNMFATWSPSKARLHLQGRSNAWRPQVNNPKEWLQVDFQKTMKVTGVTTQGVKSLLTSMYVKEFLISSSQDGHQWTLFFQNGKVKVFQGNQDSFTPVVNSLDPPLLTRYLRIHPQSWVHQIALRMEVLGCEAQDLY"}, "B2": {"name": "336(P4-P2)562 factor VIIIa mutant (other)", "chain 1": "B1 chain 1 with P333V, Q334D, L335Q", "chain 2": "B1 chain 2", "chain 3": "B1 chain 3"}, "B3": {"name": "562(P4-P2)336 factor VIII mutant (procofactor) (other)", "chain 1": "ATRRYYLGAVELSWDYMQSDLGELPVDARFPPRVPKSFPFNTSVVYKKTLFVEFTVHLFNIAKPRPPWMGLLGPTIQAEVYDTVVITLKNMASHPVSLHAVGVSYWKASEGAEYDDQTSQREKEDDKVFPGGSHTYVWQVLKENGPMASDPLCLTYSYLSHVDLVKDLNSGLIGALLVCREGSLAKEKTQTLHKFILLFAVFDEGKSWHSETKNSLMQDRDAASARAWPKMHTVNGYVNRSLPGLIGCHRKSVYWHVIGMGTTPEVHSIFLEGHTFLVRNHRQASLEISPITFLTAQTLLMDLGQFLLFCHISSHQHDGMEAYVKVDSCPEEPQLRMKNNEEAEDYDDDLTDSEMDVVRFDDDNSPSFIQIRSVAKKHPKTWVHYIAAEEEDWDYAPLVLAPDDRSYKSQYLNNGPQRIGRKYKKVRFMAYTDETFKTREAIQHESGILGPLLYGEVGDTLLIIFKNQASRPYNIYPHGITDVRPLYSRRLPKGVKHLKDFPILPGEIFKYKWTVTVEDGPTKSDPRCLTRYYSSFVNMERDLASGLIGPLLICYKESPQLRGNQIMSDKRNVILFSVFDENRSWYLTENIQRFLPNPAGVQLEDPEFQASNIMHSINGYVFDSLQLSVCLHEVAYWYILSIGAQTDFLSVFFSGYTFKHKMVYEDTLTLFPFSGETVFMSMENPGLWILGCHNSDFRNRGMTALLKVSSCDKNTGDYYEDSYEDISAYLLSKNNAIEPR", "chain 2": "B1 chain 3"}, "B4": {"name": "336(P1′-P3′)562 factor VIIIa mutant (other)", "chain 1": "B1 chain 1 with M337G, K338N, N339Q", "chain 2": "B1 chain 2", "chain 3": "B1 chain 3"}, "B5": {"name": "562(P4-P3′)336 factor VIII mutant (procofactor) (other)", "chain 1": "B3 chain 1 with G563M, N564K, Q565N", "chain 2": "B1 chain 3"}, "B6": {"name": "336(P4-P3′)562 factor VIIIa mutant (other)", "chain 1": "B1 chain 1 with P333V, Q334D, L335Q, M337G, K338N, N339Q", "chain 2": "B1 chain 2", "chain 3": "B1 chain 3", "notes": "residues 333-339 replaced by residues 559-565; also called fully substituted P4-P3′ mutant"}}, "key": {"[1]": {"system": "336(P4-P3′)562 factor VIII mutant (procofactor)"}, "[2]": {"system": "562(P4-P3′)336 factor VIII mutant (procofactor)"}, "[3]": {"system": "562(P4-P2)336 factor VIII mutant (procofactor)"}, "[4]": {"system": "336(P4-P2)562 factor VIII mutant (procofactor)"}, "[5]": {"system": "336(P1′-P3′)562 factor VIII mutant (procofactor)"}, "[6]": {"target": "T1, human activated protein C (human, UniProt P04070 43-197; P04070 212-461)", "T1 sequence (P04070 43-197, chain 1 of 2)": "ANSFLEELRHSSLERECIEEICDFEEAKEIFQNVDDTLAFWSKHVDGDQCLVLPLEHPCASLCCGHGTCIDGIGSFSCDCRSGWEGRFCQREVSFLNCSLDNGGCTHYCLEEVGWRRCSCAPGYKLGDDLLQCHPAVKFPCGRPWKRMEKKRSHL", "T1 sequence (P04070 212-461, chain 2 of 2)": "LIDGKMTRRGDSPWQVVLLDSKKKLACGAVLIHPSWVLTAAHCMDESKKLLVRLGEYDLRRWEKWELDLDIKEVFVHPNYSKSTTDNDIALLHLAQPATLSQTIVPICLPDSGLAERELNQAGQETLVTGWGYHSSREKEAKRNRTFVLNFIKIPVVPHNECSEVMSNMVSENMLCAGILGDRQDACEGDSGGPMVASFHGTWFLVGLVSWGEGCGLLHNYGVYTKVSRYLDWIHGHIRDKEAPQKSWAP", "test": "cell-based or functional assay"}, "[7]": {"target": "T1, human activated protein C", "test": "cell-based or functional assay", "remark": "listed apart in the source"}, "[8]": {"target": "T1, human activated protein C", "test": "Ki from competitive inhibition of APC cleavage against the literature Km (102 nM) of WT factor VIIIa for APC", "method": "The amount of the A1336 (nM) generated over time was determined based on the amount of WT A1 substrate, calculated by subtracting the amount of the mutant A1 from the total amount of A1 subunit.\nThe rationale for this approach was that if proteinase binding to the mutant were unaffected, then it would efficiently compete with the WT substrate. Furthermore, since the mutant remains essentially uncleaved at the A1 site during a truncated time course, it would serve as an inhibitor of detected cleavage of the WT substrate."}, "[9]": {"target": "T1, human activated protein C", "test": "competitive inhibition of APC-catalysed cleavage of WT factor VIIIa A1 subunit by the mutant (0-200 nM); Western blot densitometry, fit to competitive inhibition model with Km 102 nM", "method": "Aliquots were taken at various time points (0-20 min) and subjected to SDS-PAGE. […] The amount of the A1336 (nM) generated over time was determined based on the amount of WT A1 substrate, calculated by subtracting the amount of the mutant A1 from the total amount of A1 subunit.\nFactor VIII (130 nM) was activated by addition of 10-20 nM thrombin in 20 mM HEPES pH 7.2, 100 mM NaCl, 5 mM CaCl₂, 0.01 % Tween 20, and 100 μg/ml bovine serum albumin (Buffer A) and reactions were run at 37° C. Thrombin was inhibited after 2 min by the addition of 10-20 U/ml hirudin, and the resultant factor VIIIa was reacted with APC (2 or 40 nM) in the presence of 100 μM phospholipid vesicles. Aliquots were removed at the indicated times to assess residual factor VIIIa activity by factor Xa generation assay and proteolysis of subunits by Western blotting."}}, "note": "Where a chain is given by its changes, count along the chain named."}
{"molecule": "α-thrombin", "values": [{"measurement": "rates of cleavage of factor VIII and the generation of factor VIIIa subunits", "setting": "[1]", "result": "indistinguishable from that for WT factor VIII"}, {"measurement": "rates of cleavage of factor VIII and the generation of factor VIIIa subunits", "setting": "[2]", "result": "indistinguishable from that for WT factor VIII"}, {"measurement": "rates of cleavage of factor VIII and the generation of factor VIIIa subunits", "setting": "[3]", "result": "indistinguishable from that for WT factor VIII"}, {"measurement": "rates of cleavage of factor VIII and the generation of factor VIIIa subunits", "setting": "[4]", "result": "indistinguishable from that for WT factor VIII"}, {"measurement": "rates of cleavage of factor VIII and the generation of factor VIIIa subunits", "setting": "[5]", "result": "indistinguishable from that for WT factor VIII"}]}
{"molecule": "B1", "values": [{"measurement": "Inactivation (nM FVIIIa/min/nM APC)", "setting": "[6]", "result": 5.4, "unit": "nM FVIIIa/min/nM APC"}]}
{"molecule": "B2", "values": [{"measurement": "Inactivation (nM FVIIIa/min/nM APC)", "setting": "[6]", "result": 0.5, "unit": "nM FVIIIa/min/nM APC"}, {"measurement": "fold reduction of inactivation rate compared to WT factor VIIIa", "setting": "[7]", "result": "6 to 11", "unit": "fold"}]}
{"molecule": "B3", "values": [{"measurement": "fold increase of rate of generation of the A2c fragment compared with WT factor VIII", "setting": "[7]", "result": 6, "unit": "fold"}]}
{"molecule": "B4", "values": [{"measurement": "Inactivation (nM FVIIIa/min/nM APC)", "setting": "[6]", "result": 0.9, "unit": "nM FVIIIa/min/nM APC"}, {"measurement": "fold reduction of inactivation rate compared to WT factor VIIIa", "setting": "[7]", "result": "6 to 11", "unit": "fold"}]}
{"molecule": "B5", "values": [{"measurement": "fold increase of rate of generation of the A2c fragment compared with WT factor VIII", "setting": "[7]", "result": 27, "unit": "fold"}]}
{"molecule": "B6", "values": [{"measurement": "Inactivation (nM FVIIIa/min/nM APC)", "setting": "[6]", "result": 0.8, "unit": "nM FVIIIa/min/nM APC"}, {"measurement": "fold Ki less than the Km for WT substrate", "setting": "[8]", "result": "~3", "unit": "fold"}, {"measurement": "Ki", "setting": "[9]", "result": 36, "unit": "nM"}]}
